Source: patent US20110091994A1, “Methods for Screening Compounds for Treating and/or Preventing an Hepatitis C Virus Infection” (priority 2008, published 2011)
Read-outs that look alike come from different tables or passages of the source.

Experiments:
[1] = biological target: T1, HCV ORFs (Gal4-DB fusions) (Hepatitis C virus genotype 1b, UniProt Q9WMX2); assay type: binding, HCV genotype 1b, isolate con1; details: human protein as prey
T1 construct: expressed in transfected cells; host or cells: Saccharomyces cerevisiae MAV203 (IMAP1) / AH109 (IMAP2)

[2] = test system: HCV ORFs (Gal4-DB fusions); assay type: binding, HCV genotype 1b, isolate con1; details: human protein listed by gene symbol; the value names the HCV protein it interacts with
[3] = biological target: T2, GST-tagged viral proteins (Hepatitis C virus genotype 1b, UniProt Q9WMX2); test: Validation by co-affinity purification (CoAP); assay type: binding, HCV genotype 1b, isolate con1; design: key: +: IMAP validation; −: not validated; NA: non assayable due to default of protein expression or to cellular protein directly interacting with GST
T2 construct: expressed in transfected cells; host or cells: HEK-293T
Text: C. Validation of Y2H interactions by co-affinity purification assay. Nine co-AP positive assays are shown, representing: NS5A-SORBS2 (1), NS3-CALCOCO2 (2), NS5A-BIN1 (3), NS5A-MOBK1B (4), NS5A-EFEMP1 (5), NS3-PSMB9 and NS5A-PSMB9 (6), NS5A-PPPIRI3L (7), NS3-RASAL2 (8). After pull-down with GST tagged viral baits (+) or with negative control GST alone (−), cellular preys are identified with anti-Flag antibody. Anti-GST antibody identifies either GST alone or GST-tagged viral baits. Expression of cellular preys in cell lysate is controlled by anti-Flag (bottom panel). […]
A random pool of 59 IMAP Y2H interactions was chosen for CoAP assays. Cellular ORFs (interacting domains found in Y2H screens) were cloned by recombinational cloning from a pool of human cDNA library or the MGC cDNA plasmids using KOD polymerase (Toyobo) into pDONR207 (Invitrogen). After validation by sequencing, these ORFs were transferred to pCi-neo-3xFLAG gateway-converted, and HCV ORFs were transferred into pDEST27 (GST fusion in N-term). HEK-293T cells were then co-transfected (JetPei, Polyplus) by each pair of plasmid encoding interacting proteins. Controls are GST alone against 3xFLAG-tagged preys. Two days after transfection, cells were harvested and lysed (0.5% NP-40, 20 mM Tris-HCl (pH 8.0), 180 mM NaCl, 1 mM EDTA, and complete protease inhibitor cocktail). Cell lysates were cleared by centrifugation for 20 min at 13,000 rpm at 4° C. and soluble protein complexes were purified using Glutathione Sepharose 4B beads (GE Healthcare). Beads were then washed extensively four times with lysis buffer and proteins were separated on SDS-PAGE and transferred to nitrocellulose membrane. GST-tagged viral proteins and 3xFLAG-tagged cellular proteins were detected using standard immunoblotting techniques using anti-GST (Covance) and anti-FLAG M2 (Sigma) monoclonal antibodies (21).

[4] = biological target: T3, HCV proteins (Hepatitis C virus genotype 1b, UniProt Q9WMX2); test: Validation by Y2H pairwise matrices; assay type: binding; details: validation of interaction with HCV protein NS3;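 further: yeast two-hybrid pairwise tests of interactions first found in Y2H screens of HCV bait proteins against human cDNA libraries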
T3 construct: expressed in transfected cells
T3 sequence (Q9WMX2 1027-1657): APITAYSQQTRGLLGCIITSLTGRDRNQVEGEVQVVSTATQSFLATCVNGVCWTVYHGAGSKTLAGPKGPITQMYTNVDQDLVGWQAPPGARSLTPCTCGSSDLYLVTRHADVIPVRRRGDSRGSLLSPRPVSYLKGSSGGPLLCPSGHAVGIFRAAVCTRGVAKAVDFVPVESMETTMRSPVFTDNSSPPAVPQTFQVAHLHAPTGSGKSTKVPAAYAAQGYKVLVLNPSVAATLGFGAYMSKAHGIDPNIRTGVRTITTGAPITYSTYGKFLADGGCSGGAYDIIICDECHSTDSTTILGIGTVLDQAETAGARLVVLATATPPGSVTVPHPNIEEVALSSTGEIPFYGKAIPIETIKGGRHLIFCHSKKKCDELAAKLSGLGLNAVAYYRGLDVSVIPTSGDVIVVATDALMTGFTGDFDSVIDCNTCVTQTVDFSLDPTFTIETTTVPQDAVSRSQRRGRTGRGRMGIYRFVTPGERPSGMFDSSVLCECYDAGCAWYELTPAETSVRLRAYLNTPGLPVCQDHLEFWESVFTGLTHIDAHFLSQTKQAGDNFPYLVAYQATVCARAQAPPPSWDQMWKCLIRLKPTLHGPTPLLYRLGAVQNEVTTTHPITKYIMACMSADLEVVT

[5] = validation of interaction with HCV protein NS3
[6] = interaction with HCV protein NS5A
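Wherever IMAP Y2H IMAP1 (number of IST) is given: yeast two-hybrid screens using HCV genotype 1b proteins fused to Gal4-DB as baits against prey cDNA libraries from human spleen and foetal brain, IMAP1 via transformation and IMAP2 via mating.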
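Wherever IMAP Y2H IMAP2 (number of IST) is given: yeast two-hybrid screens using HCV genotype 1b proteins fused to Gal4-DB as baits against prey cDNA libraries from human spleen and foetal brain, IMAP1 via transformation and IMAP2 via mating.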
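Wherever Interaction with viral protein is given: yeast two-hybrid screens using HCV genotype 1b proteins fused to Gal4-DB as baits against prey cDNA libraries from human spleen and foetal brain, IMAP1 via transformation and IMAP2 via mating.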

Molecule | IMAP Y2H IMAP1 (number of IST) ([1]; HCV protein NS3 as bait) | IMAP Y2H IMAP2 (number of IST) ([1]; HCV protein NS3 as bait) | Interaction with viral protein [2] | CoAP [3, 5] | Y2H matrices [4] | IMAP Y2H IMAP2 (number of IST) ([1]; HCV protein NS5A as bait) | CoAP [3, 6]
EIF4ENIF1 (protein, UniProt Q9NRA8 1-985, looked up) Eukaryotic translation …: MDRRSMGETESGDAFLDLKKPPASKCPHRYTKEELLDIKELPHSKQRPSCLSEKYDSDGVWDPEKWHASLYPASGRSSPVESLKKELDTDRPSLVRRIVDPRERVKEDDLDVVLSPQRRSFGGGCHVTAAVSSRRSGSPLEKDSDGLRLLGGRRIGSGRIISARTFEKDHRLSDKDLRDLRDRDRERDFKDKRFRREFGDSKRVFGERRRNDSYTEEEPEWFSAGPTSQSETIELTGFDDKILEEDHKGRKRTRRRTASVKEGIVECNGGVAEEDEVEVILAQEPAADQEVPRDAVLPEQSPGDFDFNEFFNLDKVPCLASMIEDVLGEGSVSASRFSRWFSNPSRSGSRSSSLGSTPHEELERLAGLEQAILSPGQNSGNYFAPIPLEDHAENKVDILEMLQKAKVDLKPLLSSLSANKEKLKESSHSGVVLSVEEVEAGLKGLKVDQQVKNSTPFMAEHLEETLSAVTNNRQLKKDGDMTAFNKLVSTMKASGTLPSQPKVSRNLESHLMSPAEIPGQPVPKNILQELLGQPVQRPASSNLLSGLMGSLEPTTSLLGQRAPSPPLSQVFQTRAASADYLRPRIPSPIGFTPGPQQLLGDPFQGMRKPMSPITAQMSQLELQQAALEGLALPHDLAVQAANFYQPGFGKPQVDRTRDGFRNRQQRVTKSPAPVHRGNSSSPAPAASITSMLSPSFTPTSVIRKMYESKEKSKEEPASGKAALGDSKEDTQKASEENLLSSSSVPSADRDSSPTTNSKLSALQRSSCSTPLSQANRYTKEQDYRPKATGRKTPTLASPVPTTPFLRPVHQVPLVPHVPMVRPAHQLHPGLVQRMLAQGVHPQHLPSLLQTGVLPPGMDLSHLQGISGPILGQPFYPLPAASHPLLNPRPGTPLHLAMVQQQLQRSVLHPPGSGSHAAAVSVQTTPQNVPSRSGLPHMHSQLEHRPSQRSSSPVGLAKWFGSDVLQQPLPSMPAKVISVDELEYRQ | 2 | 3 | NS3 | + | + |  | 
EFEMP1 (protein, UniProt Q12805 18-493, looked up) EGF-containing fibulin-like …: QDTEETITYTQCTDGYEWDPVRQQCKDIDECDIVPDACKGGMKCVNHYGGYLCLPKTAQIIVNNEQPQQETQPAEGTSGATTGVVAASSMATSGVLPGGGFVASAAAVAGPEMQTGRNNFVIRRNPADPQRIPSNPSHRIQCAAGYEQSEHNVCQDIDECTAGTHNCRADQVCINLRGSFACQCPPGYQKRGEQCVDIDECTIPPYCHQRCVNTPGSFYCQCSPGFQLAANNYTCVDINECDASNQCAQQCYNILGSFICQCNQGYELSSDRLNCEDIDECRTSSYLCQYQCVNEPGKFSCMCPQGYQVVRSRTCQDINECETTNECREDEMCWNYHGGFRCYPRNPCQDPYILTPENRCVCPVSNAMCRELPQSIVYKYMSIRSDRSVPSDIFQIQATTIYANTINTFRIKSGNENGEFYLRQTSPVSAMLVLVKSLSGPREHIVDLEMLTVSSIGTFRTSSVLRLTIIVGPFSF | 10 |  | NS3 and NS5A |  | + | 2 | +
TMF1 (protein, UniProt P82094 1-1093, looked up) TATA element modulatory factor: MSWFNASQLSSFAKQALSQAQKSIDRVLDIQEEEPSIWAETIPYGEPGISSPVSGGWDTSTWGLKSNTEPQSPPIASPKAITKPVRRTVVDESENFFSAFLSPTDVQTIQKSPVVSKPPAKSQRPEEEVKSSLHESLHIGQSRTPETTESQVKDSSLCVSGETLAAGTSSPKTEGKHEETVNKESDMKVPTVSLKVSESVIDVKTTMESISNTSTQSLTAETKDIALEPKEQKHEDRQSNTPSPPVSTFSSGTSTTSDIEVLDHESVISESSASSRQETTDSKSSLHLMQTSFQLLSASACPEYNRLDDFQKLTESCCSSDAFERIDSFSVQSLDSRSVSEINSDDELSGKGYALVPIIVNSSTPKSKTVESAEGKSEEVNETLVIPTEEAEMEESGRSATPVNCEQPDILVSSTPINEGQTVLDKVAEQCEPAESQPEALSEKEDVCKTVEFLNEKLEKREAQLLSLSKEKALLEEAFDNLKDEMFRVKEESSSISSLKDEFTQRIAEAEKKVQLACKERDAAKKEIKNIKEELATRLNSSETADLLKEKDEQIRGLMEEGEKLSKQQLHNSNIIKKLRAKDKENENMVAKLNKKVKELEEELQHLKQVLDGKEEVEKQHRENIKKLNSMVERQEKDLGRLQVDMDELEEKNRSIQAALDSAYKELTDLHKANAAKDSEAQEAALSREMKAKEELSAALEKAQEEARQQQETLAIQVGDLRLALQRTEQAAARKEDYLRHEIGELQQRLQEAENRNQELSQSVSSTTRPLLRQIENLQATLGSQTSSWEKLEKNLSDRLGESQTLLAAAVERERAATEELLANKIQMSSMESQNSLLRQENSRFQAQLESEKNRLCKLEDENNRYQVELENLKDEYVRTLEETRKEKTLLNSQLEMERMKVEQERKKAIFTQETIKEKERKPFSVSSTPTMSRSSSISGVDMAGLQTSFLSQDESHDHSFGPMPISANGSNLYDAVRMGAGSSIIENLQSQLKLREGEITHLQLEIGNLEKTRSIMAEELVKLTNQNDELEEKVKEIPKLRTQLRDLDQRYNTILQMYGEKAEEAEELRLDLEDVKNMYKTQIDELLRQSLS |  |  | NS5A |  |  | 2 | −
RAI14 (protein, UniProt Q9P0K7 1-980, looked up) Ankycorbin: MKSLKAKFRKSDTNEWNKNDDRLLQAVENGDAEKVASLLGKKGASATKHDSEGKTAFHLAAAKGHVECLRVMITHGVDVTAQDTTGHSALHLAAKNSHHECIRKLLQSKCPAESVDSSGKTALHYAAAQGCLQAVQILCEHKSPINLKDLDGNIPLLLAVQNGHSEICHFLLDHGADVNSRNKSGRTALMLACEIGSSNAVEALIKKGADLNLVDSLGYNALHYSKLSENAGIQSLLLSKISQDADLKTPTKPKQHDQVSKISSERSGTPKKRKAPPPPISPTQLSDVSSPRSITSTPLSGKESVFFAEPPFKAEISSIRENKDRLSDSTTGADSLLDISSEADQQDLLSLLQAKVASLTLHNKELQDKLQAKSPKEAEADLSFDSYHSTQTDLGPSLGKPGETSPPDSKSSPSVLIHSLGKSTTDNDVRIQQLQEILQDLQKRLESSEAERKQLQVELQSRRAELVCLNNTEISENSSDLSQKLKETQSKYEEAMKEVLSVQKQMKLGLVSPESMDNYSHFHELRVTEEEINVLKQDLQNALEESERNKEKVRELEEKLVEREKGTVIKPPVEEYEEMKSSYCSVIENMNKEKAFLFEKYQEAQEEIMKLKDTLKSQMTQEASDEAEDMKEAMNRMIDELNKQVSELSQLYKEAQAELEDYRKRKSLEDVTAEYIHKAEHEKLMQLTNVSRAKAEDALSEMKSQYSKVLNELTQLKQLVDAQKENSVSITEHLQVITTLRTAAKEMEEKISNLKEHLASKEVEVAKLEKQLLEEKAAMTDAMVPRSSYEKLQSSLESEVSVLASKLKESVKEKEKVHSEVVQIRSEVSQVKREKENIQTLLKSKEQEVNELLQKFQQAQEELAEMKRYAESSSKLEEDKDKKINEMSKEVTKLKEALNSLSQLSYSTSSSKRQSQQLEALQQQVKQLQNQLAECKKQHQEVISVYRMHLLYAVQGQMDEDVQKVLKQILTMCKNQSQKK | 1 | 2 | NS3 | − | + |  | 
FRS3 (protein, UniProt O43559 2-492, looked up) Fibroblast growth factor …: GSCCSCLNRDSVPDNHPTKFKVTNVDDEGVELGSGVMELTQSELVLHLHRREAVRWPYLCLRRYGYDSNLFSFESGRRCQTGQGIFAFKCSRAEEIFNLLQDLMQCNSINVMEEPVIITRNSHPAELDLPRAPQPPNALGYTVSSFSNGCPGEGPRFSAPRRLSTSSLRHPSLGEESTHALIAPDEQSHTYVNTPASEDDHRRGRHCLQPLPEGQAPFLPQARGPDQRDPQVFLQPGQVKFVLGPTPARRHMVKCQGLCPSLHDPPHHNNNNEAPSECPAQPKCTYENVTGGLWRGAGWRLSPEEPGWNGLAHRRAALLHYENLPPLPPVWESQAQQLGGEAGDDGDSRDGLTPSSNGFPDGEEDETPLQKPTSTRAAIRSHGSFPVPLTRRRGSPRVFNFDFRRPGPEPPRQLNYIQVELKGWGGDRPKGPQNPSSPQAPMPTTHPARSSDSYAVIDLKKTVAMSNLQRALPRDDGTARKTRHNSTDLPL | 2 | 1 | NS3 | + | + |  | 
